The text below walks through data of patent US20220251152A1, “COMPOSITIONS AND METHODS FOR SELECTIVE PROTEIN DEGRADATION” (Novartis AG, priority 2019, published 2022).

This assay deals with T1, IKZF3 136-180 and 236-249-tagged avian myelocytomatosis viral oncogene (MYC) homolog (Homo sapiens, UniProt Q96SW2+Q9UKT9, DEL181-196/S197T).
T1 construct: expressed in transfected cells; host or cells: HEK293T
Kind of assay: Western blot of IKZF3-tagged MYC in HEK293T cells. The note with it: tag fused to N-terminus of MYC; lenalidomide 4 hours. The assay is classed as cell-based. For orientation: Immunoblotting shows a protein as a band on a membrane.

T1 sequence (Q96SW2 whole entry, stated change not applied, one chain of several): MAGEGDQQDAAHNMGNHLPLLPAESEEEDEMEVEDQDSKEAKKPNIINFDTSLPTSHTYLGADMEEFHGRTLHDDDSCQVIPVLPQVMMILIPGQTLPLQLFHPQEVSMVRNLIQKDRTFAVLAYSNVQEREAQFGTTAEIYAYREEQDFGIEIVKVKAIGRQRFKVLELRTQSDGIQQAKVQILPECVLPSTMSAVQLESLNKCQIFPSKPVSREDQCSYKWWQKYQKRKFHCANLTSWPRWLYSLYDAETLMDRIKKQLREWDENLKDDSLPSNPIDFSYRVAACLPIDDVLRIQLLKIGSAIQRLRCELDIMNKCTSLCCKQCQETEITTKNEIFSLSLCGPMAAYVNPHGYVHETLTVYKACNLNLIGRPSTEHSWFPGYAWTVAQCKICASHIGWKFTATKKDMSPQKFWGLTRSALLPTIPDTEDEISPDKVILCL

Regarding “IKZF3 136-180 and 236-249: IKZF3-based degradation tag with amino acid residues 136-180 and 236-249 of human IKZF3, SEQ ID NO: 3 (HKRSHTGERPFQCNQCGASFTQKGNLLRHIKLHTGEKPFKCHLCNTASAEARHIKAEMG; source: /note="Description of Unknown: IKZF3 sequence")”, the “ability of the tag to mediate lenalidomide-dependent degradation of MYC” value is recorded as “mediated the lenalidomide-dependent degradation of tagged MYC”.
